Data on eleven molecules can be found in patent US20110311550A1 (Scripps Research, published 2011).

B1: Fab N1 (Fab, V domains shown)
VH: VQLLEQSGPEVKKPGDSLRISCKMSGDSLVTTWIGWVRQKPGQGLEWMGIINPGDSSTNIYPGDSATRYGPSFQGQVTISIDKSTSTAYLQWNAVKPSDTGIYYCARHVPVPISGTFLWREREMHDFGYFDDWGQGTLVIVSS
VL: ELTQSPGTLSLSPGERATLSCRASQSVSSSYLAWYQQKPGQAPRLLIYGASNRAAGIPDRFSGSGSGADFTLTISRLEPEDFAVYYCQQYGSSLITFGQGTRLEIKR
B2: Fab N2 (Fab, V domains shown)
VH: B1 VH with A94T
VL: ELTQSPGTLSLFPGERATLSCRASQSILGRYLAWYQQKGGRAPRLLIFGASKRATGIPDRFSGSGSGTDFTLTIGRLEPEDFAVYYCQHYGSSITFGQGTRLDIKR
B3: Fab N4 (Fab, V domains shown)
VH: B1 VH with A94N, P97A
VL: ELTLTQSPGTLSLSPGERATLSCRASQSVSNNYLAWYQQKPGQAPRLLIYGASSRATGIPDRFSGSGSGTGFTLIISRLEPEDFAVYYCQQYGSSSITFGQGTRLEIKR
B4: Fab P2 (Fab, V domains shown)
VH: EVQLLESGGGVVQPGRSLRLSCAASGFTLDTFTMHWVRQSPGKGLEWVALISHDANNKDYADSVKGRFTISRDNSKKLVYLQMDSLRSEDTAVYYCARGGPAYYLYSDVLTGFHNVVGDYWGQGTLVTVSA
VL: not shown
B5: Fab P3 (Fab, V domains shown)
VH: EVQLLESGGGVVQPGKSLRLSCAVSGFTLNTFAMHWVRQVPGKGLEWVALTSHDGSRQDYADSVRGRFTISRDNSKSMVFLLMNSLRAEDTAVYYCVRGGPAYYTYNDVLTGYAYVVGDFWGQGTLVTVSS
VL: not shown
B6: Fab P1 (Fab, V domains shown)
VH: EVQLLESGGGVVQPGGSLRLSCAASGFTFTSFTMHWVRQAPGKGLEWVALISHDGSNKDYADSVRGRFTVSRDNSKKMVYLQMSSLRPDDAAVYYCARGGPAYYTYSDTLTGYHNVVGDYWGQGTLVTVSS
VL: ELTQSPGTLSLSPGERATLSCRASQVRGFLAWFQQKPGQAPRLLIYGASNRAPGIPDRFSGSGSGTDFTLTISRLEPEDFAVYYCQQYGDSPPITFGQGTRLEIKR
B7: Fab P1a (Fab, V domains shown)
VH: B6 VH
VL: ELTQSPGTLSLSPGERATLSCRTSQSVSSTYLAWYQQKPGQPPRLLIYGASNRAPGIPDRFSGSGSGTDFTLTISRLEPEDFAVYYCQQYGDSPPITFGQGTRLDIKR
B8: Fab O1 (Fab, V domains shown)
VH: VQLLEQSGAEVKKAGESVRLSCKASGYRFGDYWIAWVRQLPGRAPEWMGIIYPDDSDTKYSPSFQGQVTISADKSIRTTFLDWGSLKASDTAIYYCARGCLGAKCYYPHYYYGLDVWGQGTTVIVSS
VL: ELTQSPSSLSASVGDRVTITCRATQGIDNYLNWYQQKPGKPPRLLIYGASSLQSGVPSRFSGGGSGTHFTLTITNLQPEDFATYYCQQSYSTPPETFGQGTKVEIKR
B9: Fab V1 (Fab, V domains shown)
VH: VQLLEQSGAEVQKPGASVKVSCKPSGYIFTNFGISWVRQAPGQGLEWMAWINTYNGKTTYAQSLQGRVTLTTDPYTNTVFMELRSLRSDDTAVYYCARENEGEYVWGHFRSDYWGQGTLVTVSS
VL: ELTQSPSSLSASVGDRVTITCQASQDISNFLNWYQRRPGKAPNLLIYDATHLETGVPSRFSGSGFGTHFTLTINSLQPEDIGTYYCQHFDDVPSFTFGPGTKVDLKR
B10: Fab P4 (Fab, V domains shown)
VH: not shown
VL: ELTQSPGTLSLSPGERATLSCRASQSVSSSNLAWFQHKSGRAPRLLIYGASNRAPDIPDRFSGSGSGTDFTLSISRLEPEDFAVYYCQRYGDSPPITFGQGTRLEIKR
B11: Fab N3 (Fab, V domains shown)
VH: VQLLEQSGAEVKKPGDSLRISCKMSGDSLVWIGWVRQKPGQGLEWMGIINPGDSATNIYPGDSDTRYGPSFQGQVTISIDKSTSTAYLQWNAVKASDTGIYYCARHVPVPISGTFLWREREMHDLGYFDDWGQGTLVIVSS
VL: not shown

Where a chain is given by its changes, count along the chain named.

For the first test, the target named is HCV E1E2 antigen, isolate OH8 (hepatitis C virus, isolate OH8). The test can be described thus: ELISA, Fab on E1E2 antigen.
Regarding B1, the “OD 450 nm” value was 1.13 OD 450 nm.
On the same count and under the same terms, the result for B2 reads 1.44 OD 450 nm; that for B3, 1.75 OD 450 nm.
As to B4, the “OD 450 nm” value was determined as 1 OD 450 nm.
On the same count and under the same terms, as for B5, the figure is 0.36 OD 450 nm; as for B6, 0.8 OD 450 nm.
Still for that read-out and setting: the result for B7 reads 0.24 OD 450 nm.
Same read-out and setting: as for B8, the figure is 0.44 OD 450 nm; as for B9, 1.35 OD 450 nm; as for B10, 1.15 OD 450 nm.
As for B11, the “OD 450 nm” value turned out to be 1.32 OD 450 nm.

Another test deals with HCV E1E2 antigen, isolate UKN6.5.8 (hepatitis C virus, isolate UKN6.5.8). The test can be described thus: ELISA, Fab on E1E2 antigen. Background: An ELISA detects its analyte on a solid surface through an enzyme-linked reagent.
Take B1: the “OD 450 nm” value was determined as 0.29 OD 450 nm.
The same measure, in the same setting: the result for B2 reads 0.4 OD 450 nm.
Same read-out and setting: as for B3, the figure is 0.44 OD 450 nm.
The same measure, in the same setting: the result for B4 reads 0.22 OD 450 nm; that for B5, 0.03 OD 450 nm.
For the molecule B6, the “OD 450 nm” value stood at 0.06 OD 450 nm.
Same read-out and setting: the result for B7 reads 0.05 OD 450 nm; that for B8, 0.02 OD 450 nm.
Same read-out and setting: as for B9, the figure is 0.05 OD 450 nm; as for B10, 0.19 OD 450 nm; as for B11, 0.23 OD 450 nm.

A further test addresses HCV E1E2 antigen, isolate UKN3A1.28c (hepatitis C virus, isolate UKN3A1.28c). The test can be described thus: ELISA, Fab on E1E2 antigen.
Take B1: the “OD 450 nm” value was determined as 1.08 OD 450 nm.
On the same count and under the same terms, as for B2, the figure is 1.36 OD 450 nm; as for B3, 1.73 OD 450 nm; as for B4, 1.05 OD 450 nm.
The same measure, in the same setting: the result for B5 reads 0.33 OD 450 nm.
On the same count and under the same terms, the result for B6 reads 0.98 OD 450 nm; that for B7, 0.18 OD 450 nm; that for B8, 0.48 OD 450 nm.
B9: the “OD 450 nm” value was 0.06 OD 450 nm.
Same read-out and setting: as for B10, the figure is 1.07 OD 450 nm.
The same measure, in the same setting: the result for B11 reads 1.27 OD 450 nm.

A further test addresses HCV E1E2 antigen, isolate J6E3 (hepatitis C virus, isolate J6E3, UniProt P26660 192-383; P26660 384-750). The test can be described thus: ELISA, Fab on E1E2 antigen.
Consider B1, for which the “OD 450 nm” value was found to be 0.64 OD 450 nm.
Still for that read-out and setting: as for B2, the figure is 0.92 OD 450 nm.
Same read-out and setting: the result for B3 reads 0.99 OD 450 nm; that for B4, 0.6 OD 450 nm; that for B5, 0.11 OD 450 nm.
Still for that read-out and setting: the result for B6 reads 0.08 OD 450 nm; that for B7, 0.03 OD 450 nm.
For the molecule B8, the “OD 450 nm” value is 0.05 OD 450 nm.
Same read-out and setting: the result for B11 reads 0.66 OD 450 nm.

For a further test, the target named is T1, HCV E1E2 antigen, isolate JFH (hepatitis C virus, isolate JFH, UniProt Q99IB8 192-383; Q99IB8 384-750).
T1 construct: also called JFH-1
The test can be described thus: ELISA, Fab on E1E2 antigen.
With B1, the “OD 450 nm” value came out at 0.99 OD 450 nm.
On the same count and under the same terms, the result for B2 reads 1.34 OD 450 nm; that for B3, 1.57 OD 450 nm.
Still for that read-out and setting: as for B4, the figure is 0.88 OD 450 nm.
On the same count and under the same terms, as for B5, the figure is 0 OD 450 nm.
Take B7: the “OD 450 nm” value is 0 OD 450 nm.
For B8, the “OD 450 nm” value worked out at 0 OD 450 nm.
The same measure, in the same setting: as for B10, the figure is 0.45 OD 450 nm; as for B11, 1.2 OD 450 nm.

For a further test, the target named is HCV E1E2 antigen, isolate UKN5.15.7 (hepatitis C virus, isolate UKN5.15.7). The test can be described thus: ELISA, Fab on E1E2 antigen.
Consider B1, for which the “OD 450 nm” value came to 0.43 OD 450 nm.
Still for that read-out and setting: as for B2, the figure is 0.46 OD 450 nm; as for B3, 0.71 OD 450 nm; as for B4, 0.25 OD 450 nm.
On the same count and under the same terms, as for B5, the figure is 0.06 OD 450 nm; as for B6, 0.17 OD 450 nm; as for B7, -0.04 OD 450 nm.
Consider B8, for which the “OD 450 nm” value was 0.1 OD 450 nm.
With B9, the “OD 450 nm” value worked out at 0.3 OD 450 nm.
The same measure, in the same setting: the result for B10 reads 0.31 OD 450 nm.
The same measure, in the same setting: as for B11, the figure is 0.37 OD 450 nm.

For another test, the target named is HCV E1E2 antigen, isolate UKN1B12.16 (hepatitis C virus, isolate UKN1B12.16). The test can be described thus: ELISA, Fab on E1E2 antigen.
As for B1, the “OD 450 nm” value amounted to 0.65 OD 450 nm.
Regarding B2, the “OD 450 nm” value came to 0.81 OD 450 nm.
Regarding B3, the “OD 450 nm” value was found to be 1.06 OD 450 nm.
Same read-out and setting: as for B4, the figure is 0.59 OD 450 nm; as for B5, 0.2 OD 450 nm.
Still for that read-out and setting: as for B6, the figure is 0.26 OD 450 nm.
Still for that read-out and setting: the result for B7 reads 0.15 OD 450 nm; that for B8, 0.17 OD 450 nm; that for B9, 0.16 OD 450 nm.
Take B10: the “OD 450 nm” value is 0.59 OD 450 nm.
The same measure, in the same setting: as for B11, the figure is 0.62 OD 450 nm.

For a further test, the target named is HCV E1E2 antigen, isolate CH35 (hepatitis C virus, isolate CH35). The test can be described thus: ELISA, Fab on E1E2 antigen.
On to B1, for which the “OD 450 nm” value came out at 0.59 OD 450 nm.
On the same count and under the same terms, the result for B2 reads 0.82 OD 450 nm.
In the case of B3, the “OD 450 nm” value was found to be 1.03 OD 450 nm.
Same read-out and setting: the result for B4 reads 0.47 OD 450 nm; that for B5, 0.11 OD 450 nm; that for B6, 0.27 OD 450 nm.
The same measure, in the same setting: the result for B7 reads 0.08 OD 450 nm; that for B8, 0.27 OD 450 nm.
On the same count and under the same terms, the result for B9 reads 0.77 OD 450 nm; that for B10, 0.52 OD 450 nm; that for B11, 0.59 OD 450 nm.

The target in the next test is HCV E1E2 antigen, isolate UKN2B1.1 (hepatitis C virus, isolate UKN2B1.1). The test can be described thus: ELISA, Fab on E1E2 antigen.
Regarding B1, the “OD 450 nm” value was determined as 0.33 OD 450 nm.
As for B2, the “OD 450 nm” value was found to be 0.44 OD 450 nm.
The same measure, in the same setting: as for B3, the figure is 0.48 OD 450 nm; as for B4, 0.18 OD 450 nm; as for B5, 0 OD 450 nm.
The same measure, in the same setting: the result for B6 reads 0.03 OD 450 nm.
On the same count and under the same terms, as for B7, the figure is 0 OD 450 nm.
Turning to B8, the “OD 450 nm” value came out at 0.02 OD 450 nm.
Still for that read-out and setting: as for B9, the figure is 0.3 OD 450 nm; as for B10, 0.09 OD 450 nm.
The same measure, in the same setting: as for B11, the figure is 0.29 OD 450 nm.

Another test has as its target HCV E1E2 antigen, isolate UKN4.21.16 (hepatitis C virus, isolate UKN4.21.16). The test can be described thus: ELISA, Fab on E1E2 antigen.
As to B1, the “OD 450 nm” value came out at 0.93 OD 450 nm.
Same read-out and setting: as for B2, the figure is 1.09 OD 450 nm; as for B3, 1.49 OD 450 nm; as for B4, 0.78 OD 450 nm.
On the same count and under the same terms, as for B5, the figure is 0.15 OD 450 nm.
On the same count and under the same terms, the result for B6 reads 0.62 OD 450 nm; that for B7, 0.04 OD 450 nm.
For the molecule B8, the “OD 450 nm” value worked out at 0.57 OD 450 nm.
As for B9, the “OD 450 nm” value stood at 1.02 OD 450 nm.
As for B10, the “OD 450 nm” value was 0.99 OD 450 nm.
The same measure, in the same setting: as for B11, the figure is 0.96 OD 450 nm.
